Measurements: the nanobody polyreactivity screen of Harvey et al. (2022)

Test: yeast display, Sf9 membrane polyspecificity reagent, FACS + sequencing; frameworks hold sequencing errors
Method in brief: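 After 36–48 hours of galactose induction, yeast (Saccharomyces cerevisiae BJ5465) displaying a synthetic nanobody library were stained at 4 °C for 1 hour with 10% biotinylated, detergent-solubilized Sf9 membrane reagent. Streptavidin microbeads enriched the stained cells before FACS sorting into low and high (top ~1%) gates on anti-HA and streptavidin fluorescence. Each clone's polyreactivity label reflects its gate of origin.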

Sequence | polyreactivity (PSR sort gate)
QVQLVESGGRLVQAGGSLRLSCAASAITFGHNAMGWYRQAPGKGRELVATISTRGGSTYADSVKGRFTISRDNAKNTVYLQMNSLKPEDTAVYYCAAPAGGYVPYFYEFDYWGQGTQVTVSS | low polyreactivity
QVQLVESGGGLVQAGGSLRLSCAASVYIFQSNVMGWYRQAPGKESELLAAITVSGGSTYYADSVKGRFTISRDNGKNTVYLQMKSLKPEDTAVYYCNKVGVKFRVDGWYDYWGQATQVTVSS | high polyreactivity
QVQLVESGGGLVQAVGSLRLSCAASGRIFRYNAMGWYRQAPVKERELVASITSAGSTNYADSVKGRFTISRDNAKNTVYLQMNSLKPEDTAVYYCAARAQSPPYGYWGQGTQVTVSS | high polyreactivity
QVQLVESGGGLVQSGGSLRLSCAASGRIFHYNAMGWYRQAPGKERELVAVITTIGGDTYYADSVKGRFTISRDNAKNTVYLQMNSLKPEDTAVYYCARDRYDNPYDQDLDYWGQGTQVTVSS | low polyreactivity
QVQLVESGGGLVQAGGSLRLSCAASGRIFVINAMGWYRQAPGKEREFVAGITSSGNTNYADSVKGRFTISRDNAKNTVYLQMNSLKPEDTAVYYCNAQVYLTWLTYWLYYPPNDYWGQGTQVTVSS | low polyreactivity
QVQLVESGGGLVQAGGSLRLSCAASGSTFESNAMGWYRQAPGKERELVAAISRGGNTYYADSVKGRFTISRDNAKNTVYLQMNSLKPEDTAVYYCAADGAGWLDYGYWGQGTQVTVSS | low polyreactivity
QVQLQESGGGLVQACGSLCLICAASSYFSTYYSMGWYRKAPSKGRELVAAIDSGSSTNYADSVEGRFTISRDNAKNTVYLQMISLKPGDTAVYYCAAPWGHLVVHPYRGQGTQVTVSS | high polyreactivity
QVQLVESGGGLVQPGGSLRLSCAASGSIFYGYTMGWYRQEPGKERELVAAIRKSGGSTNYADSVKWRFTISRDIAKNTVYLQMNSLKPEDTAVYYCAAAYYRGRGYFWGQGTQVTVSS | high polyreactivity
QVQLVESGGGLVQAGGSLRLSCAASGFIFLSYGMGWYRPAPGKERELVASITSDGGSTYYADSVKGRFTISRDNAKNTVYLQMNSLKPEDTAVYYCAADSVSPWYYGWYYRYRGYGYWGQGTQVTVSS | low polyreactivity
QVQLVESGGGIVQAGGSLRLSCAASGNIFHQNAMGWYRQAPGKERELVAAISGSAGSTYYADSVKGRFTISRDNAKNTVYLQMNSLKPEDTAVYYCAADYYWLYNYWGQGTQVTVSS | high polyreactivity
QVQLVESGGGLVQAGGSLRLSCAASGRIFRVYAMGWYRPAPGKERELVATIRRGSSTYYADSVKGRFTISRDNAKNTVYLQMNSLKPEDTAVYYCADRSSRRGPISEGDYWGQGTQVTVSS | high polyreactivity
QVQLVESGGGLVQAGGSLRLSCAASGLIFLPYAMGWYRQAPGKERELVAAIRWSDDSTYYADSVKGRFTILRDNAKNTVYFQMNCLKPEDTAVYYCNAYVYRPSYIFNYYYEYDYWGQGTQVTVSS | high polyreactivity
QVQLVESGGGLVQAGGSLRLSCAASGSIFPYNVMGWYRQAPGKERELVAAISTRGGRTYYADSVKGRVTISRDNAKNTVYLQMNSLKPEDTAVYDCATAGGPYSASGYYGGQGTQVTVSS | high polyreactivity
QFQLVESGGGLVQAGGSLRLSCAASGSTYSYYAMGWYRQAPGKERELVAAISSRGGSTYYADSVKGRFTISRDNAMNTVYLQMNSLKPEDTAVYYCNADHQFRSSVSGDHDYWGQGTQVTVSS | high polyreactivity
QVQRVESGGGLVQAGGSLRLSCAASGYTLGGYAMGWYRQAPGKERELVAAISSSGTSTYYADSVKGRFTISRDNAKNTVYLQMNSLKPEDTAVYYCNAYYLTYSAGDYWGQGTQVTVSS | low polyreactivity
QVQLVESGGGLVQAGGSLRLSCAASGRTFPYYAMGWYRQAPGKERELVAAISSSGGRTYYADSVKGRFTISRDNAKNTVYLQMNSQKPEDTAVYYCAAQTPGVYLRQIGGYYYWGQGTQVTVSS | low polyreactivity
